These results are taken from PMC7312448.

The target of the test is MavC (wild type) (L. pneumophila). Briefly: SEC.

With MavC (wild type) (enzyme), the stoichiometry N came out at 2.
